Changes are numbered by the printed parent chain.
T1: OSTM1 (Homo sapiens (Human), UniProt Q86WC4 32-284)
T1 sequence: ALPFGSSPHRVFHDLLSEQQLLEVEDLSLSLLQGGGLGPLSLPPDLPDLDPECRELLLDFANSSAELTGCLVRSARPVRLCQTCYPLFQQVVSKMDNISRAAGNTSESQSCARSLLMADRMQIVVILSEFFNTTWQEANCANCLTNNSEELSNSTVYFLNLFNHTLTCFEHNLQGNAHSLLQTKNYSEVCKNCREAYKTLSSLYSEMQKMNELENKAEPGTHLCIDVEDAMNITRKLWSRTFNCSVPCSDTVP

T2: PLXDC1 (Homo sapiens (Human), UniProt Q8IUK5 19-426)
T2 sequence: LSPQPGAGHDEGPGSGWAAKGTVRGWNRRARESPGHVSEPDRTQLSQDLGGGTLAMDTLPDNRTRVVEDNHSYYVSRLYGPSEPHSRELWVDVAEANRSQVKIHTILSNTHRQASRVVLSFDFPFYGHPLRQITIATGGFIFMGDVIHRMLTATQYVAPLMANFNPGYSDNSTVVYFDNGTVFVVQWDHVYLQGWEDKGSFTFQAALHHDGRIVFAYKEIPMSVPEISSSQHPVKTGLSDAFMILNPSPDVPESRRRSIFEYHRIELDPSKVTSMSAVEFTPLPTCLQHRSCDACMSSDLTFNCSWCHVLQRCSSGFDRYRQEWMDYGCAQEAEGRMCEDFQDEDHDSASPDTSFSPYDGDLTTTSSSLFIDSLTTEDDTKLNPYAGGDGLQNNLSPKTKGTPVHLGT

T3: TNFSF8 (Homo sapiens (Human), UniProt P32971 63-234)
T3 sequence: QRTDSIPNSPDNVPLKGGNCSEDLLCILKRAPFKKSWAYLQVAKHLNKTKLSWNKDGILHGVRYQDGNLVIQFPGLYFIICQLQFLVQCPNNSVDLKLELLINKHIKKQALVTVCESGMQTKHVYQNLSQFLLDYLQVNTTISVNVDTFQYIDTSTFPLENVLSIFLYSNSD

T4: LRTM1 (Homo sapiens (Human), UniProt Q9HBL6 28-288)
T4 sequence: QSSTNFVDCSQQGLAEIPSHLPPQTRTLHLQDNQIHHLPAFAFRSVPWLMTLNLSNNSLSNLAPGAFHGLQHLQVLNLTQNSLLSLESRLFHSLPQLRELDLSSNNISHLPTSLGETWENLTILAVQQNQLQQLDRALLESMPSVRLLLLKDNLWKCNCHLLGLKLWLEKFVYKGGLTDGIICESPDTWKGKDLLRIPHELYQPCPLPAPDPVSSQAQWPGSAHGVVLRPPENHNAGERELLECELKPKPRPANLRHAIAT

T5: BAMBI (Homo sapiens (Human), UniProt Q13145 21-152)
T5 sequence: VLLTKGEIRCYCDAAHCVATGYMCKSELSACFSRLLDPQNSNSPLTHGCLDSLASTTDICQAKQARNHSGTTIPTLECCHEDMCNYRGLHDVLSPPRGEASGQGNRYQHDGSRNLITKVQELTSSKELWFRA

T6: ULBP1 (Homo sapiens (Human), UniProt Q9BZM6 26-216)
T6 sequence: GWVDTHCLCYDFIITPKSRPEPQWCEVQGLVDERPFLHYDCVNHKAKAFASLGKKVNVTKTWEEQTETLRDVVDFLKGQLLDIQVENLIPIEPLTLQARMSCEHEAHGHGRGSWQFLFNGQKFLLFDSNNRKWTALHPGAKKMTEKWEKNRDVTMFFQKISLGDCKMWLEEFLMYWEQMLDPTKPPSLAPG

T7: WIF1 (Homo sapiens (Human), UniProt Q9Y5W5 29-379)
T7 sequence: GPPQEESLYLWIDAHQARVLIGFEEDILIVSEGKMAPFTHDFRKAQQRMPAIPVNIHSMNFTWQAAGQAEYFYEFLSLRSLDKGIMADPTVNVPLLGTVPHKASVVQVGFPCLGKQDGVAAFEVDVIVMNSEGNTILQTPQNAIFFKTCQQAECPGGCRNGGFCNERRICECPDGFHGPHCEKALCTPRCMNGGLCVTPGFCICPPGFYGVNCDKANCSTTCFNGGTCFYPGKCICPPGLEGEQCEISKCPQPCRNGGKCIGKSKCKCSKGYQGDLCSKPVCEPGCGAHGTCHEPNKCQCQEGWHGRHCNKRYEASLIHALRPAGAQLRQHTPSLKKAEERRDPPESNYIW

T8: ICOSLG (Homo sapiens (Human), UniProt O75144 19-256)
T8 sequence: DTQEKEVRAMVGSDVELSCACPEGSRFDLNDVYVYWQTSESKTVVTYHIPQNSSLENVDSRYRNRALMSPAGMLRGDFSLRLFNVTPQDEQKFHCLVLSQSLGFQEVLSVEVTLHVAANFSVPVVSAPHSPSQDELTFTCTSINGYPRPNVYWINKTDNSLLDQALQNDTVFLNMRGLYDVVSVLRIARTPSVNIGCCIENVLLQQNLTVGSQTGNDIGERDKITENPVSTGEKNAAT

T9: CD320 (Homo sapiens (Human), UniProt Q9NPF0 36-229)
T9 sequence: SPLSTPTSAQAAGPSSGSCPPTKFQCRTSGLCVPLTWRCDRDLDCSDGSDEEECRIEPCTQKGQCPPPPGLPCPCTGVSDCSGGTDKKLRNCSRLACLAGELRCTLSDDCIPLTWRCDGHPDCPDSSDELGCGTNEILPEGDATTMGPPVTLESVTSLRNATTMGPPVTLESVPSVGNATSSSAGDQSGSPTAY

B1: PD1-45D6 (antibody, V domains shown)
VH: QVQLVESGGGVVQPGRSLRLSCAASGFTFSSYAMHWVRQVPGKGLEWVAVISYDGNDKYYADSVKGRFTISRDNSKNTLYLQMNSLRAEDTAVYYCVPTTFEYWGQGSQVTVSS
VL: DIVMTQTPLSLPVTPGEAASISCRSSQSLLDSDDGKTYLDWYLQKPGQSPQLLIYTLSYRASGVPDRFSGSGSGTEFNLRISRVEAEDVGIYYCMQRVEFPFTFGQGTKLDIK
notes: scFv-phage in the screening ELISA; whole IgG in the other assays
B2: PD1-41C9 (antibody, V domains shown)
VH: QMQLVESGGGVVQPGRSLRLSCAASGFTFSSYAMHWVRQAPGKGLEWVAVISYDGSNKYYADSVKGRFTISRDNSKNTLYLQMNRLRSEDTAVYYCTTTTFDSWGQGTLITVSS
VL: DIVMTQTPLSLPVTPGEAASISCRSSQSLLDSEDGNTYLDWYLQKPGQSPQLLIYTLSHRASGVPDRFSGSGSGTDFTLKISRVAAEDVGLYYCLQRMGFPYTFGQGTKLDIK
notes: as for B1
B3: PD1-49A2 (antibody, V domains shown)
VH: B2 VH with M2V, S75P, R85S, S88A, Q106R, I110V
VL: B2 VL with T7S, A18P, L30F, E33D, A85E, L91I, L110V, D111E
notes: scFv-phage in the screening ELISA; whole IgG in the other assays; also called Parent 49A2

biological target: T1, OSTM1; assay: ELISA

Binder | binding result
B1 | no binding (tested: 1 ug/ml)
B2 | no binding (tested: 1 ug/ml)
B3 | no binding (tested: 1 ug/ml)

biological target: T2, PLXDC1; assay: ELISA

Binder | binding result
B1 | no binding (tested: 1 ug/ml)
B2 | no binding (tested: 1 ug/ml)
B3 | no binding (tested: 1 ug/ml)

biological target: CFC1 (Homo sapiens (Human), UniProt P0CG37 26-158); assay: ELISA
Sequence (P0CG37 26-158 limits assumed): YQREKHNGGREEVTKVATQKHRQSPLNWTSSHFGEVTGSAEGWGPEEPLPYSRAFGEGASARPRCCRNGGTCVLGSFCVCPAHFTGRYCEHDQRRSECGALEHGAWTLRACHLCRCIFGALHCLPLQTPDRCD

Binder | binding result
B1 | no binding (tested: 1 ug/ml)
B2 | no binding (tested: 1 ug/ml)
B3 | no binding (tested: 1 ug/ml)

biological target: T3, TNFSF8; assay: ELISA

Binder | binding result
B1 | no binding (tested: 1 ug/ml)
B2 | no binding (tested: 1 ug/ml)
B3 | no binding (tested: 1 ug/ml)

biological target: T4, LRTM1; assay: ELISA

Binder | binding result
B1 | no binding (tested: 1 ug/ml)
B2 | no binding (tested: 1 ug/ml)
B3 | no binding (tested: 1 ug/ml)

biological target: T5, BAMBI; assay: ELISA

Binder | binding result
B1 | no binding (tested: 1 ug/ml)
B2 | no binding (tested: 1 ug/ml)
B3 | no binding (tested: 1 ug/ml)

biological target: T6, ULBP1; assay: ELISA

Binder | binding result
B1 | no binding (tested: 1 ug/ml)
B2 | no binding (tested: 1 ug/ml)
B3 | no binding (tested: 1 ug/ml)

biological target: T7, WIF1; assay: ELISA

Binder | binding result
B1 | no binding (tested: 1 ug/ml)
B2 | no binding (tested: 1 ug/ml)
B3 | no binding (tested: 1 ug/ml)

biological target: T8, ICOSLG; assay: ELISA

Binder | binding result
B1 | no binding (tested: 1 ug/ml)
B2 | no binding (tested: 1 ug/ml)
B3 | no binding (tested: 1 ug/ml)

biological target: T9, CD320; assay: ELISA

Binder | binding result
B1 | no binding (tested: 1 ug/ml)
B2 | no binding (tested: 1 ug/ml)
B3 | no binding (tested: 1 ug/ml)

biological target: TNF (Homo sapiens (Human), UniProt P01375 77-233); assay: ELISA
Sequence (P01375 77-233 limits assumed): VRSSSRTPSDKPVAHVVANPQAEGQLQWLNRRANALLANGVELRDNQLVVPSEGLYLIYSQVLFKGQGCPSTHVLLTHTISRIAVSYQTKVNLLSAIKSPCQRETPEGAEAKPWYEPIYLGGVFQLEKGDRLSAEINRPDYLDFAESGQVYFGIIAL

Binder | binding result
B1 | no binding (tested: 1 ug/ml)
B2 | no binding (tested: 1 ug/ml)
B3 | no binding (tested: 1 ug/ml)

Source: patent US20190248900A1 (Y BIOLOGICS, published 2019)
